In patent US20230348564A1, “ANTI-CANCER PROTEINS” (UNICHEM LABORATORIES LTD, priority 2020, published 2023):

Key:
KB = test: cell based in vitro cytotoxicity/anti-proliferation assay (summary); parameters: species or system Human; conditions: Cervical
Procedure: The percentage cytotoxicity was calculated using the statistical tool.

TNF-alpha/JNK = test: SelectScreen Cell-based Pathway Profiling (GeneBLAzer bla reporter); parameters: species or system Human; conditions: 0.5 μg/mL-50 μg/mL
Procedure: (§1) The mechanism of action of the recombinant lectin having the amino acid sequence of SEQ ID NO.2 is studied by determining its effect on the modulation of key signaling pathways involved in the pathogenesis of cancer. The study was performed using SelectScreen® Cell-based Pathway Profiling Services at Life Technologies, USA. Modulatory effect of Lectin having the amino acid sequence of SEQ ID NO. 2 on various cell signaling pathways was investigated in cell lines overexpressing specific markers using GeneBLAzer Beta-lactamase (bla) Reporter Technology and Tango platforms. The cell lines tested were MDA-MB-231 (Human Breast cancer), KB (Human Cervical cancer), PA-1 (Human ovarian cancer), PANC-1 (Human pancreatic cancer), HT-29 (Human colorectal cancer), T-24 (Human Bladder cancer)
(§2) 10 mg of recombinant lectin having the amino acid sequence of SEQ ID NO.2 was dissolved in 200 μL of TBS buffer (25 mM, pH 8.0) to obtain stock solution of 50 mg/mL. The stock solutions were diluted in Serum Free Medium (STM) to achieve final concentrations in cells ranging from 0.00158 μg/mL-50 μg/mL. Cells (32 μL) were diluted in Assay Media to appropriate cell density and were added to the assay plate. Cells were incubated at 37° C./5% CO2 for 24 h. 40 nL of 1000×sample and 4 μL of assay medium was added to the cells in the assay plate and incubated for 30 minutes at 37° C./5% CO2 in a humidified incubator. Then, 4 μL of the 10×EC80 concentration of activator was added to all wells containing sample to bring the final assay volume to 40 μL. The assay plate was incubated for 16 hours at 37° C./5% CO2 in a humidified incubator. Further, 8 μL of the Substrate Loading Solution (LiveBLAzer™—FRET B/G) was added to the assay plate. The assay plate was incubated for 2 hours at room temperature, in the dark. The assay plate was read on a fluorescence plate reader (Tecan Safire2). Fluorescence emission values at 460 nm and 530 nm were obtained using a standard florescence plate reader and % modulation was determined.
(§3) % Modulation=[(A−B)/A]*100
(§4) Where, A=Fluorescence reading in Control (untreated cells) B=Fluorescence reading in TI treated cells

NF-KB = test: as above; parameters: species or system Human; conditions: 0.5 μg/mL-50 μg/mL
Procedure: as §1, §2, §3, §4

PKC/Ca2+ = test: as above; parameters: species or system Human
Procedure: as §1, §2, §3, §4

ADBR1 = test: as above; parameters: species or system Human; conditions: 0.158 μg/mL-50 μg/mL
Procedure: as §1, §2, §3, §4

PI3K/AKT/FOXO3 = test: as above; parameters: species or system Human; conditions: 0.5 μg/mL-50 μg/mL
Procedure: as §1, §2, §3, §4

MAPK/EGFR/Ras/Raf = test: as above; parameters: species or system Human; conditions: 0.158 μg/mL-50 μg/mL
Procedure: as §1, §2, §3, §4

IL-4/STAT6 = test: as above; parameters: species or system Human; conditions: 0.0158 μg/mL-0.5 μg/mL
Procedure: as §1, §2, §3, §4

CCR5 = test: as above; parameters: species or system Human; conditions: 0.058 μg/mL-50 μg/mL
Procedure: as §1, §2, §3, §4

B1: SEQ ID NO. 2: recombinant lectin; variant of the S. rolfsii lectin amino acid sequence (reported as Rec-2 in WO 2010/095143) (protein)
chain: TYKITVRVYQTNPDAFFHPVEKTVWKYANGGTWTITDDQHVLTMGGSGTSGTLRFHADNGESFTATFGVHNYKRWCDIVTNLAADETGMVINQQYYSQKNREEARERQLSNYQVKNAKGRNFQIVYTEAEGNDLHANLIIG
modifications: In vitro synthesis
KB
  % Cytotoxicity: 64.0%
MCF-7
  % Cytotoxicity: 28.0%
PA-1
  % Cytotoxicity: 72.0%
TNF-alpha/JNK
  Effect (wrt control), inhibition: 12%-45% inhibition
TNF-alpha/JNK; listed as recombinant lectin
  Effect (wrt control), inhibition: 12% to 45%
NF-KB
  Effect (wrt control), inhibition: 3%-13% inhibition
NF-KB; listed as recombinant lectin
  Effect (wrt control), inhibition: 3% to 13%
PKC/Ca2+; 0.00158 μg/mL to 0.5 μg/mL
  effective inhibition: 5% to 19%
PKC/Ca2+; 0.00158 μg/mL-0.158 μg/mL
  Effect (wrt control), inhibition: 5%-19% inhibition
ADBR1
  Effect (wrt control), inhibition: 26%-49% inhibition
ADBR1; listed as recombinant lectin
  Effect (wrt control), inhibition: 26% to 49%
PI3K/AKT/FOXO3
  Effect (wrt control), inhibition: 2%-73% inhibition
PI3K/AKT/FOXO3; listed as recombinant lectin
  Effect (wrt control), inhibition: 2% to 73%
MAPK/EGFR/Ras/Raf
  Effect (wrt control), inhibition: 2%-48% inhibition
MAPK/EGFR/Ras/Raf; listed as recombinant lectin
  Effect (wrt control), inhibition: 2% to 48%
IL-4/STAT6
  Effect (wrt control), inhibition: 16%-28% inhibition
IL-4/STAT6; listed as recombinant lectin
  Effect (wrt control), inhibition: 16% to 28%
CCR5
  Effect (wrt control), inhibition: 21%-70% inhibition
CCR5; listed as recombinant lectin
  Effect (wrt control), inhibition: 21%-70%
